Source: US10870691B2, “Antibodies and fragments thereof that bind hepatitis B virus protein X” (priority 2018, dated 2020)
Read-outs that look alike come from different tables or passages of the source. Ends that are not written are not given here.

Columns and labels:
[1] = Mouse immunization with peptide-BSA conjugate; assay type: in vivo; conditions: 10 μg peptide-BSA conjugate plus 1 μg adjuvant, biweekly injections, CD-1 mice
Experimental: (§3) Two of these HBx peptides were individually conjugated to BSA and three NZB/W, three CD-1, and three BALB/c mice were immunized with 10 μg peptide-BSA conjugate plus 1 μg adjuvant (ALD and MDP in a 1:1 ratio). Biweekly injections were performed using a “rapid” immunization protocol developed by Antibody Solutions. […] The top 50 candidates were further evaluated by confocal imaging of HBV-infected PHH.

HBV = assay: Extracellular HBV DNA quantification (qPCR) in HBV-infected PHH; assay type: cell-based, HBV genotype D in primary human hepatocytes; conditions: siRNA 25 nM transfected or ETV treatment from day 6 post-infection (FIGS. 8A, 9A, 10A)
Experimental: PHH were infected with HBV or HBVΔX (1000 genomic equivalents/cell) or transduced with lentiviruses as described previously (Niu, et al., PLoS One (2017) 12:e0169648).
(§1) siRNA transfections were performed using Lipofectamine RNAiMax.
Extracellular HBeAg and HBV DNA were measured as previously described (Niu, et al., PLoS One (2017) 12:e0169648, 29). HBeAg levels were measured by enzyme-linked immunosorbent assay or electrochemiluminescence assay (Meso Scale Discovery, Rockville, Md.). Extracellular HBV DNA was purified from cell-culture medium using a DNeasy 96 Blood & Tissue Kit (Qiagen) and quantified by qPCR on a QuantStudio 7 Flex Real-Time PCR System (ThermoFisher Scientific) using primers and a probe designed to the HBx region of the HBV genome; forward primer: 5′-CCGTCTGTGCCTTCTCATCTG-3′; reverse primer: 5′-AGT CCA AGA GTY CTC TTA TGY AAG ACC TT-3′; probe: 5′/56-FAM/CCG TGT GCA/ZEN/CTT CGC TTC ACC TCT GC/3IABkFQ/3′. HBV DNA levels were normalized to β-actin.

HBx [2] = conditions: HBV-infected PHH, confocal microscopy (FIGS. 8B, 9B, 10B)
Smc6 = assay: Confocal microscopy of Smc6 in HBV-infected PHH after treatment; assay type: cell-based, human; conditions: confocal microscopy (FIGS. 8B, 10B)
Experimental: as §1

HBx [3] = target: HBx (Hepatitis B virus genotype D subtype ayw, UniProt P03165); conditions: top 50 candidates, HBV-infected PHH
Experimental: as §3

[4] = tested on: recombinant HBx-DDB1 fusion protein; assay: HBx ELISA, binding to recombinant HBx-DDB1 fusion protein; parameters: species or system HBV; conditions: 100 ng/mL antibody, varying concentrations of fusion protein
Experimental: Mouse monoclonal anti-HBx antibodies were developed by Antibody Solutions (Sunnyvale, Calif.). Antibody candidates were screened by enzyme-linked immunosorbent assay (ELISA) using recombinant HBx-DDB1 fusion protein and then by confocal microscopy on HBV infected PHH.
Antibody candidates were screened by ELISA. […] Signal strength was measured as absorbance at 450 nm.

HBx [5] = conditions: for detection of HBx by Western blot in PHH transduced with Myc-HBx lentivirus: Myc-tagged HBx genotype D, lysates day 3 post-transduction; for HBx genotype recognized by Western blot: PHH transduced with lentiviruses expressing HBx genotype A-E; for detection of HBx by Western blot in HBV-infected PHH: lysates day 4 post-infection
Experimental: For Western blotting experiments, PHH were transduced with Myc-HBx-expressing lentivirus or were infected with wild-type HBV, HBx-negative HBV (HBVΔX), or were mock-infected.
Western blotting was performed as previously described (Decorsière, et al., Nature (2016) 531:386-389). Briefly, PHH were transduced with a lentivirus expressing 3xMyc-HBx (HBV genotype A, B, C, D or E) or infected with wild-type HBV, HBVΔX, or mock-infected. On the indicated day post-transduction or post-infection, lysates were collected by adding 0.25 mL 1× cell lysis buffer (Cell Signaling) combined with protease inhibitor cocktail (ThermoFisher Scientific) and scraping to remove the cells from the plates. Membranes were probed with 1:250 diluted mouse monoclonal anti-Smc6 (Abgent), 1:1000 diluted mouse monoclonal c-Myc (LifeSpan Biosciences), 1:250 diluted mouse monoclonal anti-HBx mAb (15 μg/mL final concentration), and 1:2000 diluted rabbit monoclonal anti-GAPDH (Cell Signaling). IRDye 680RD goat anti-rabbit or IRDye 800CW goat anti-mouse IgG (LI-COR, Lincoln, Nebr.) at a 1:5000 dilution were used as secondary antibodies. Blots were visualized using an Odyssey Infrared Imaging System (LI-COR).

HBx69-87 peptide = HBx69-87 peptide (Hepatitis B virus genotype D subtype ayw, UniProt P03165); conditions: 100 ng/mL antibody, varying concentrations of HBx peptide
Experimental: (§2) Antibody candidates were screened by ELISA. Briefly, sulfhydryl plates were coated with 36 ng/mL recombinant HBx-DDB1 fusion protein, blocked and then incubated with 50 μL of undiluted hybridoma supernatant. Signal was detected colorimetrically with a goat anti-mouse-HRP antibody (Jackson Immuno Research, West Grove, Pa.) and incubation with TMB substrate solution (MossBio, Pasadena, Mass.). Signal strength was measured as absorbance at 450 nm. ELISA profiling of mAbs was performed using 100 ng/mL antibody with varying concentrations of recombinant HBx-DDB1 fusion protein or HBx peptide.

HBx27-50 peptide = HBx27-50 peptide (Hepatitis B virus genotype D subtype ayw, UniProt P03165); conditions: 100 ng/mL antibody, varying concentrations of HBx peptide
Experimental: as §2

Chain of HBx (Hepatitis B virus genotype D subtype ayw, UniProt P03165) (P03165 whole entry, the tested form may be a part): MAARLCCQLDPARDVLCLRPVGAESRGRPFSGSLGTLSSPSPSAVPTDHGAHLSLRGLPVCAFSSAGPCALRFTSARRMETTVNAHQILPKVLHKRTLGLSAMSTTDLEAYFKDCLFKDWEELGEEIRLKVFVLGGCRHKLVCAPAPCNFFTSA

HBx27-50: HBx AD38 (genotype D) residue 27-50 peptide, conjugated to BSA for immunization (GRPFSGSLGTLSSPSPSAVPTDHG; also: conjugated to BSA)
immunogenicity of peptide-BSA conjugate [1]: immunogenic

C=C1[C@H](CO)[C@@H](O)C[C@@H]1n1cnc2c(=O)[nH]c(N)nc21 [ETV, entecavir]
extracellular HBV DNA levels (HBV): significantly reduced
change in percentage of HBx-positive cells (HBx [2]): Neither ETV nor siCtrl significantly reduced
change in percentage of Smc6-positive cells (Smc6): Neither ETV nor siCtrl significantly reduced the percentage of HBx-positive cells or increased the percentage of Smc6-positive cells

B1: HBx M19: mouse monoclonal antibody against HBx; heavy chain SEQ ID NO: 27, light chain SEQ ID NO: 30 (Table 1) (antibody)
heavy: EVQLQQSGPELVKPGASVKISCQASGYTFTDYYMNWVKQSHGKRLEWIGDINPNNGGTAYNQKFKGKATLTVDRSSSTAYMEVRSLTSEDSAVYFCALLAYWGQGTLVTVSAAKTTPPSVYPLAPGSAAQTNSMVTLGCLVKGYFPEPVTVTWNSGSLSSGVHTFPAVLQSDLYTLSSSVTVPSSTWPSQTVTCNVAHPASSTKVDKKIVPRDCGCKPCICTVPEVSSVFIFPPKPKDVLTITLTPKVTCVVVDISKDDPEVQFSWFVDDVEVHTAQTKPREEQINSTFRSVSELPIMHQDWLNGKEFKCRVNSAAFPAPIEKTISKTKGRPKAPQVYTIPPPKEQMAKDKVSLTCMITNFFPEDITVEWQWNGQPAENYKNTQPIMDTDGSYFVYSKLNVQKSNWEAGNTFTCSVLHEGLHNHHTEKSLSHSPGK
light: DVVMTQTPLSLPVSLGDQASISCRSSQSLVYSDGNTHLHWYLQKTGQSPKLLIYKASNRFSGVPDRFSGSGSGTDFTLKISRVEAEDLGVYFCSQSTHVPLTFGAGTKLELKRADAAPTVSIFPPSSEQLTSGGASVVCFLNNFYPKDINVKWKIDGSERQNGVLNSWTDQDSKDSTYSMSSTLTLTKDEYERHNSYTCEATHKTSTSPIVKSFNRGEC
selectivity and sensitivity of hybridoma clones by confocal imaging (HBx [3]): most selective and sensitive
binding to recombinant HBx-DDB1 fusion protein by ELISA [4]: bound
detection of HBx by Western blot in PHH transduced with Myc-HBx lentivirus (HBx [5]; listed as HBx mAb): detected a 17 kDa protein
detection of HBx by Western blot in PHH transduced with Myc-HBx lentivirus (HBx [5]; listed as αHBx mAb): detected
HBx genotype recognized by Western blot (HBx [5]; listed as HBx mAb): primarily recognizes genotype D HBx
HBx genotype recognized by Western blot (HBx [5]; listed as anti-HBx mAb): selective for genotype D HBx
sensitivity in Western blot analysis versus the other mAb (HBx [5]; lentivirus-expressed HBx in PHH): superior sensitivity
detection of HBx by Western blot in HBV-infected PHH (HBx [5]; listed as HBx mAb): detects a 17 kDa band
detection of HBx by Western blot in HBV-infected PHH (HBx [5]; listed as anti-HBx mAb): able to detect physiologically relevant levels of HBx protein
detection of HBx by Western blot in HBV-infected PHH (HBx [5]; listed as αHBx mAb): detected
binding to HBx69-87 control peptide by ELISA (HBx69-87 peptide): did not bind
binding to HBx27-50 peptide by ELISA (HBx27-50 peptide): potently bound
